From PMC9482650, “Quantitative fragmentomics allow affinity mapping of interactomes” (Nature Communications, 2022)

T1: DLG3_1, Q92796
T1 sequence (Q92796 125-227, limits assumed, looked up): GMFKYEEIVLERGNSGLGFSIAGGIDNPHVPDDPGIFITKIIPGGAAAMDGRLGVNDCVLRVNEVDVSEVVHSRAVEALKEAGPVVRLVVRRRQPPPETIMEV

T2: DLG3_2, Q92796
T2 sequence (Q92796 221-321, limits assumed, looked up): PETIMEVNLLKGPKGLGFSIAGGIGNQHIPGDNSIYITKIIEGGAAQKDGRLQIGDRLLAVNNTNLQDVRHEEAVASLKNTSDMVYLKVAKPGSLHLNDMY

T3: FRMPD1, Q5SYB0
T3 sequence (Q5SYB0 52-145, limits assumed, looked up): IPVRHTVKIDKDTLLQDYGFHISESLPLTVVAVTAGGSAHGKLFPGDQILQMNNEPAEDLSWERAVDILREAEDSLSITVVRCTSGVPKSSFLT

T4: GRIP1_5, Q9Y3R0
T4 sequence (Q9Y3R0 568-668, limits assumed, looked up): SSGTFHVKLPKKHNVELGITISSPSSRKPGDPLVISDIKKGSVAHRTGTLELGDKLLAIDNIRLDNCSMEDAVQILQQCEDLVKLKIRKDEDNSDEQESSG

T5: LNX2_2, Q8N448
T5 sequence (Q8N448 334-432, limits assumed, looked up): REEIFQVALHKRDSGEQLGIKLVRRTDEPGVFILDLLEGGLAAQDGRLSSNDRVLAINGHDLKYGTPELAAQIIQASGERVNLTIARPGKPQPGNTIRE

T6: MPDZ_12, O75970
T6 sequence (O75970 1857-1958, limits assumed, looked up): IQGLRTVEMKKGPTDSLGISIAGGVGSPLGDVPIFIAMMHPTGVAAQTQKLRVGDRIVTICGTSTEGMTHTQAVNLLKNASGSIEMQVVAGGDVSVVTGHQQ

T7: PARD3B_1, Q8TEW8
T7 sequence (Q8TEW8 196-299, limits assumed, looked up): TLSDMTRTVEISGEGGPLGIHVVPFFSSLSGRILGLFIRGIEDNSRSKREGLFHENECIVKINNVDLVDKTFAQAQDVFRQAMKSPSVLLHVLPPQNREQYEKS

T8: RAPGEF6, Q8TEU7
T8 sequence (Q8TEU7 525-625, limits assumed, looked up): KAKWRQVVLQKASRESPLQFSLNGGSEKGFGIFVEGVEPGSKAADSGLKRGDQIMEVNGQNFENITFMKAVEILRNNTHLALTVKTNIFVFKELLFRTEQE

T9: SNTB1, Q13884
T9 sequence (Q13884 107-205, limits assumed, looked up): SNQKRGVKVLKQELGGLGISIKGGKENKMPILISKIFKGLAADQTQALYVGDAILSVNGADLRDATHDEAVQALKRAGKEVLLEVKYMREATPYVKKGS

T10: TX1BP3, O14907
T10 sequence (O14907 10-122, limits assumed, looked up): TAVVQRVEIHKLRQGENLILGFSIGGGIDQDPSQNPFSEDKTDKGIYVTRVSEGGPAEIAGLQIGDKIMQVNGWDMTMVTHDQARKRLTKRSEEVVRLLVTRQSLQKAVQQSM


Legend:
Test in all cases: holdup assay
Parameters in all cases: key: below the threshold = too weak to quantify, mostly under pKd 3.1 to 4
Details in all cases: plain residues with an end cap or a label only (N-terminal biotin on a linker: ado-ado)
DLG3_1, Q92796 = target: T1, DLG3_1, Q92796
DLG3_2, Q92796 = target: T2, DLG3_2, Q92796
DLG4_1, P78352 = target: DLG4_1, P78352
FRMPD1, Q5SYB0 = target: T3, FRMPD1, Q5SYB0
FRMPD2_1, Q68DX3 = target: FRMPD2_1, Q68DX3
FRMPD2_2, Q68DX3 = target: FRMPD2_2, Q68DX3
GOPC, Q9HD26 = target: GOPC, Q9HD26
GORASP2, Q9H8Y8 = target: GORASP2, Q9H8Y8
GRIP1_5, Q9Y3R0 = target: T4, GRIP1_5, Q9Y3R0
HTRA2, O43464 = target: HTRA2, O43464
Inadl_3, Q8NI35 = target: Inadl_3, Q8NI35
Inadl_6, Q8NI35 = target: Inadl_6, Q8NI35
Inadl_8, Q8NI35 = target: Inadl_8, Q8NI35
LNX2_2, Q8N448 = target: T5, LNX2_2, Q8N448
MAGI2_4, Q86UL8 = target: MAGI2_4, Q86UL8
MAGI2_5, Q86UL8 = target: MAGI2_5, Q86UL8
MAST1, Q9Y2H9 = target: MAST1, Q9Y2H9
MAST2, Q6P0Q8 = target: MAST2, Q6P0Q8
MPDZ_12, O75970 = target: T6, MPDZ_12, O75970
PARD3B_1, Q8TEW8 = target: T7, PARD3B_1, Q8TEW8
PICK1, Q9NRD5 = target: PICK1, Q9NRD5
PTPN3, P26045 = target: PTPN3, P26045
RAPGEF6, Q8TEU7 = target: T8, RAPGEF6, Q8TEU7
SCRIB_3, Q14160 = target: SCRIB_3, Q14160
SNTB1, Q13884 = target: T9, SNTB1, Q13884
TJP2_1, Q9UDY2 = target: TJP2_1, Q9UDY2
TX1BP3, O14907 = target: T10, TX1BP3, O14907

DLG4_1, P78352, sequence (P78352 62-152): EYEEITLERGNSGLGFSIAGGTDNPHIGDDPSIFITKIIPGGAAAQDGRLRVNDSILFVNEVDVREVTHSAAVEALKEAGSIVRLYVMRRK
TJP2_1, Q9UDY2, sequence (Q9UDY2 24-128): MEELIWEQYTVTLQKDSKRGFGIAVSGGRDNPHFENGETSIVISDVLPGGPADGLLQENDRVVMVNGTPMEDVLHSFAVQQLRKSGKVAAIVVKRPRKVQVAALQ
FRMPD2_2, Q68DX3, sequence (Q68DX3 944-1038): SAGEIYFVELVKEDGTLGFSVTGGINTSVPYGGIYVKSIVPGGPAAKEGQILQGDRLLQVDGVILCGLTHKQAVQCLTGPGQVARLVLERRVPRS
FRMPD2_1, Q68DX3, sequence (Q68DX3 770-861): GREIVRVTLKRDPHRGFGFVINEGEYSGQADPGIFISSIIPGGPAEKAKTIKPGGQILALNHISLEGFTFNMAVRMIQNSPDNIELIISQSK
MAST2, Q6P0Q8, sequence (Q6P0Q8 1099-1202): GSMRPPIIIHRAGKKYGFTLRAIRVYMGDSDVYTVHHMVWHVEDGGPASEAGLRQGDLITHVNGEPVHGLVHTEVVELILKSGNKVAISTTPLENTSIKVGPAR
PTPN3, P26045, sequence (P26045 505-587): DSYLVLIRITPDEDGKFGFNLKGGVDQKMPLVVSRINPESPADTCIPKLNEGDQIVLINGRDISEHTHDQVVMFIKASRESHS
PICK1, Q9NRD5, sequence (Q9NRD5 17-115): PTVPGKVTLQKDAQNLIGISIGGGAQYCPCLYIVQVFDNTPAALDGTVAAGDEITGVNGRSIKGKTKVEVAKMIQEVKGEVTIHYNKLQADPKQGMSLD
HTRA2, O43464, sequence (O43464 355-458): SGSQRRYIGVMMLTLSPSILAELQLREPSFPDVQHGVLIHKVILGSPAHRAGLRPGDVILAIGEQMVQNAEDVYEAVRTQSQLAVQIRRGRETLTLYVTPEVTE
Inadl_6, Q8NI35, sequence (Q8NI35 1058-1167): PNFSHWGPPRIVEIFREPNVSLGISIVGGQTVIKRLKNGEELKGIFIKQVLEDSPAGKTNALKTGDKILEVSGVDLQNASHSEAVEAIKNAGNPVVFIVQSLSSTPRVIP
SCRIB_3, Q14160, sequence (Q14160 999-1103): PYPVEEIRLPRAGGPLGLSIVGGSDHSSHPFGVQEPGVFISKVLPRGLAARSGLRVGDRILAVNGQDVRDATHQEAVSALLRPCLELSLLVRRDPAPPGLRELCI
Inadl_8, Q8NI35, sequence (Q8NI35 1425-1530): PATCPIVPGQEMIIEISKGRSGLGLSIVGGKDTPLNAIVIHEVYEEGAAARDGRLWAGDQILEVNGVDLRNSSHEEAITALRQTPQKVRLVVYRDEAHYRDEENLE
MAGI2_4, Q86UL8, sequence (Q86UL8 772-865): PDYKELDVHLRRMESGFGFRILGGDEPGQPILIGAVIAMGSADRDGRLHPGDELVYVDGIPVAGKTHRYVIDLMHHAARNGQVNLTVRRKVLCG
Inadl_3, Q8NI35, sequence (Q8NI35 359-469): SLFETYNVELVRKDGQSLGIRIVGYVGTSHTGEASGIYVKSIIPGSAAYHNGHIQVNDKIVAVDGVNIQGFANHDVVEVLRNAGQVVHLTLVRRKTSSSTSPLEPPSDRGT
MAGI2_5, Q86UL8, sequence (Q86UL8 915-1017): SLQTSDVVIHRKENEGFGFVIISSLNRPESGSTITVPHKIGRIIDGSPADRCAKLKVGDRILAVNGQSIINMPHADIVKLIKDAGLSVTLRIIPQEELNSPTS
MAST1, Q9Y2H9, sequence (Q9Y2H9 962-1065): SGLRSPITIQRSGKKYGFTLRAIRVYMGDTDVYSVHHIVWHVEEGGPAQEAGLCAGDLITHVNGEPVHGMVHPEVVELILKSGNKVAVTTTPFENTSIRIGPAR

Binder | pKd (DLG3_1, Q92796) | pKd (DLG3_2, Q92796) | pKd (DLG4_1, P78352) | pKd (FRMPD1, Q5SYB0) | pKd (FRMPD2_1, Q68DX3) | pKd (FRMPD2_2, Q68DX3) | pKd (GOPC, Q9HD26) | pKd (GORASP2, Q9H8Y8) | pKd (GRIP1_5, Q9Y3R0) | pKd (HTRA2, O43464) | pKd (Inadl_3, Q8NI35) | pKd (Inadl_6, Q8NI35) | pKd (Inadl_8, Q8NI35) | pKd (LNX2_2, Q8N448) | pKd (MAGI2_4, Q86UL8) | pKd (MAGI2_5, Q86UL8) | pKd (MAST1, Q9Y2H9) | pKd (MAST2, Q6P0Q8) | pKd (MPDZ_12, O75970) | pKd (PARD3B_1, Q8TEW8) | also measured
EWTDERQSKV [GAB3, Q8WWW8] | 3.59 | below the threshold | 3.79 | below the threshold | below the threshold | 3.52 | 3.82 | below the threshold | below the threshold | below the threshold | below the threshold | below the threshold | 4.02 | below the threshold | below the threshold | 3.95 | below the threshold | 4.8 | below the threshold | below the threshold | pKd (PICK1, Q9NRD5): below the threshold; pKd (PTPN3, P26045): 4.12; pKd (RAPGEF6, Q8TEU7): below the threshold; pKd (SCRIB_3, Q14160): below the threshold; pKd (SNTB1, Q13884): 4.62; pKd (TJP2_1, Q9UDY2): below the threshold; pKd (TX1BP3, O14907): 3.72
ASGLDKRDYV [CLDN9, O95484] | below the threshold | below the threshold | below the threshold | below the threshold | below the threshold | below the threshold | below the threshold | below the threshold | below the threshold | below the threshold | below the threshold | below the threshold | 3.91 | 3.92 | below the threshold | below the threshold | below the threshold | 3.5 | below the threshold | below the threshold | pKd (PICK1, Q9NRD5): below the threshold; pKd (PTPN3, P26045): below the threshold; pKd (RAPGEF6, Q8TEU7): below the threshold; pKd (SCRIB_3, Q14160): below the threshold; pKd (SNTB1, Q13884): below the threshold; pKd (TJP2_1, Q9UDY2): below the threshold; pKd (TX1BP3, O14907): 3.92

More lines, main results first:

pKd (DLG3_1, Q92796) | pKd (DLG3_2, Q92796) | pKd (DLG4_1, P78352) | pKd (FRMPD1, Q5SYB0) | pKd (FRMPD2_1, Q68DX3) | pKd (FRMPD2_2, Q68DX3) | pKd (GOPC, Q9HD26) | pKd (GORASP2, Q9H8Y8) | pKd (GRIP1_5, Q9Y3R0) | pKd (HTRA2, O43464) | pKd (Inadl_3, Q8NI35) | pKd (Inadl_6, Q8NI35) | pKd (Inadl_8, Q8NI35) | pKd (LNX2_2, Q8N448) | pKd (MAGI2_4, Q86UL8) | pKd (MAGI2_5, Q86UL8) | pKd (MAST1, Q9Y2H9) | pKd (MAST2, Q6P0Q8) | pKd (MPDZ_12, O75970) | pKd (PARD3B_1, Q8TEW8) | Binder | also measured
below the threshold | 3.73 | 3.99 | below the threshold | below the threshold | 4.27 | 3.67 | below the threshold | below the threshold | below the threshold | below the threshold | below the threshold | 3.66 | below the threshold | below the threshold | 3.89 | 4.86 | 5.36 | below the threshold | below the threshold | PDSNPEESSV [SEMA4C, Q9C0C4] | pKd (PICK1, Q9NRD5): below the threshold; pKd (PTPN3, P26045): 4.83; pKd (RAPGEF6, Q8TEU7): below the threshold; pKd (SCRIB_3, Q14160): 4.45; pKd (SNTB1, Q13884): 4.46; pKd (TJP2_1, Q9UDY2): below the threshold; pKd (TX1BP3, O14907): 4.25
below the threshold | below the threshold | 3.52 | below the threshold | below the threshold | below the threshold | 3.76 | below the threshold | below the threshold | below the threshold | below the threshold | 3.76 | below the threshold | below the threshold | below the threshold | 3.75 | 4.97 | 5.68 | below the threshold | 3.92 | NPETRDETQL [KCNT1, Q5JUK3] | pKd (PICK1, Q9NRD5): below the threshold; pKd (PTPN3, P26045): 4.78; pKd (RAPGEF6, Q8TEU7): below the threshold; pKd (SCRIB_3, Q14160): 4.84; pKd (SNTB1, Q13884): 4.35; pKd (TJP2_1, Q9UDY2): below the threshold; pKd (TX1BP3, O14907): 3.62
